# According to the RNAGym collection of RNA variant scans (doi:10.7554/elife.90254):
# B1: OR4K15 (parent)
# chain: GUUAACGGUCAUAGGCCAUGGAAACUAGGAGCACCAUUUCGCUGCCAGUGAAGAAAUGAACAAAGAAAAUCUGGGCCAGGCAGGCAUCAAAAGAAAUAGUCUUGCGCUCAACCAGAAAGUCUGUAAUCAUUUUAAGGGUA
# Variants of: B1
# Assay: self-cleavage, relative activity (ratio to wild type); higher = more cleavage; in vitro, sequencing; the parent is a self-cleaving ribozyme
row,Variant,self-cleavage
1,GUUAACGGUCAUAGGCCAUGGAAACUAGGAGCACCAUAUCGCUGCCAGUGAAGAAAUGAACAAGGAAAAUCUGGGCCAGGCAGGCAUCAAAAGAAAUAGUCUUGCGCUCAACCAGAAAGUCUGUAAUCAUUUUAAGGGUA [U38A A64G],1.37
2,GUUAACGGUCAUAGGCCAUGGAAACUAGGAGCACCAUAUCGCUGCCAGUGAUGAAAUGAACAAAGAAAAUCUGGGCCAGGCAGGCAUCAAAAGAAAUAGUCUUGCGCUCAACCAGAAAGUCUGUAAUCAUUUUAAGGGUA [U38A A52U],1.64
3,GUUAACGGUCAUAGGCCAUGGAAACUAGGAGCACCAGUUCGCUGCCAGUGAGGAAAUGAACAAAGAAAAUCUGGGCCAGGCAGGCAUCAAAAGAAAUAGUCUUGCGCUCAACCAGAAAGUCUGUAAUCAUUUUAAGGGUA [U37G A52G],1.48
4,GUUAACGGUCAUAGGCCAUGGAAACUAGGAGCACCACUUCGCUGCCAGUGAAGAAAUGAACAAAGAAAAUCUGGGCCAGGCAGGCAUCAAAAGAAAUAGUCUUGCGCUCAACCAGAAAGUCUGUAAUCAUUUCAAGGGUA [U37C U133C],1.16
5,GUUAACGGUCAUAGGCCAUGGAAACUAGGAGCACCACUUCGCUGCCAGUGAAGAAAUGAACAAAGAAAAUCUGGGCCAGGCAGGCAUCAAAAGAAAUAGUCUUGCGCUCAACCAGAAAGUCUGUAAUCAUUUAAAGGGUA [U37C U133A],1.34
6,GUUAACGGUCAUAGGCCAUGGAAACUAGGAGCACCAUAUCGCUGCCAGUGAAGAAAUGAACAAAGAAAAUCUGGGCCAGGCAGGCAUCAAAGGAAAUAGUCUUGCGCUCAACCAGAAAGUCUGUAAUCAUUUUAAGGGUA [U38A A92G],1.34
7,GUUAACGGUCAUAGGCCAUGGAAACUAGGAGCACCAGUUCGCUGCCAGUGAAGAAAUGAACAAAGAAAAUCUGGGCCAGGCAGGCAUCAAAAGAAAUAGUCUUGCGCUCAACCAGAAAGUCUGUAAUCACUUUAAGGGUA [U37G U130C],0.05
8,GUUAACGGUCAUAGGCCAUGGAAACUAGGAGCACCAGUUCGCUGCCAGUGAAGAGAUGAACAAAGAAAAUCUGGGCCAGGCAGGCAUCAAAAGAAAUAGUCUUGCGCUCAACCAGAAAGUCUGUAAUCAUUUUAAGGGUA [U37G A55G],1.07
9,GUUAACGGUCAUAGGCCAUGGAAACUAGGAGCACCAGUUCGCUGCCAGUGAAGAAAUGGACAAAGAAAAUCUGGGCCAGGCAGGCAUCAAAAGAAAUAGUCUUGCGCUCAACCAGAAAGUCUGUAAUCAUUUUAAGGGUA [U37G A59G],0.71
10,GUUAACGGUCAUAGGCCAUGGAAACUAGGAGCACCAUAUCGCUGCCAGUGAAGAAAUGAACAAAGGAAAUCUGGGCCAGGCAGGCAUCAAAAGAAAUAGUCUUGCGCUCAACCAGAAAGUCUGUAAUCAUUUUAAGGGUA [U38A A66G],1.31
11,GUUAACGGUCAUAGGCCAUGGAAACUAGGAGCACCAUAUCGCUGCCAGUGAAGAAAUGAACAAAGAAAAUCUGGGCCGGGCAGGCAUCAAAAGAAAUAGUCUUGCGCUCAACCAGAAAGUCUGUAAUCAUUUUAAGGGUA [U38A A78G],0.26
12,GUUAACGGUCAUAGGCCAUGGAAACUAGGAGCACCAUAUCGCUGCCAGUGAAGAAAUGAACAAAGAAAAUCUGGGCCUGGCAGGCAUCAAAAGAAAUAGUCUUGCGCUCAACCAGAAAGUCUGUAAUCAUUUUAAGGGUA [U38A A78U],0.39
13,GUUAACGGUCAUAGGCCAUGGAAACUAGGAGCACCAUAUCGCUGCCAGUGAAGAAAUGAACAAAGAGAAUCUGGGCCAGGCAGGCAUCAAAAGAAAUAGUCUUGCGCUCAACCAGAAAGUCUGUAAUCAUUUUAAGGGUA [U38A A67G],0.89
14,GUUAACGGUCAUAGGCCAUGGAAACUAGGAGCACCAGUUCGCUGCCAGUGAAGAAAUGAACAAAGAAAAUCUGGGCCAGGCAGGCAUCAAAAGAAAUAGUCUUGCGCUCAACCAGAAAGUCUGUAAUCAUUUUAAGGGUA [U37G],1.62
15,GUUAACGGUCAUAGGCCAUGGAAACUAGGAGCACCACUUCGCUGCCAGUGAAGAAAUGAACAAAGAAAAUCUGGGCCAGGCAGGCAUCAAAAGAAAUAGUCUUGCGCUCAACCAGAAAGUCUGAAAUCAUUUUAAGGGUA [U37C U124A],0.21
16,GUUAACGGUCAUAGGCCAUGGAAACUAGGAGCACCACUUCGCUGCCAGUGAAGAAAUGAACAAAGAAAAUCUGGGCCAGGCAGGCAUCAAAAGAAAUAGUCUUGCGCUCAACCAGAAAGUCUGCAAUCAUUUUAAGGGUA [U37C U124C],0.62
17,GUUAACGGUCAUAGGCCAUGGAAACUAGGAGCACCAGUUCGCUGCCAGUGAAGAAAUGAACAAAGAAAAUCUGGGCCAGGCAGGCAUCAAAAGAAAUAGUCUUGCGCUCAACCAGAAAGUCUGUAAUCAUUUUAAGGAUA [U37G G138A],1.23
18,GUUAACGGUCAUAGGCCAUGGAAACUAGGAGCACCAUAUCGCUGCCAGUGAAGAAAUGAACAAAGAAAAUCUGGGCCAGGCAGGCAUCAAAAGAAAUAGUCUUGCGCUCAACCAGAGAGUCUGUAAUCAUUUUAAGGGUA [U38A A117G],2.22
19,GUUAACGGUCAUAGGCCAUGGAAACUAGGAGCACCAUAUCGCUGCCAGUGAAGAAAUGAACAAAGAAAAUCUGGGCCAGGCAGGCAUCUAAAGAAAUAGUCUUGCGCUCAACCAGAAAGUCUGUAAUCAUUUUAAGGGUA [U38A A89U],2.11
20,GUUAACGGUCAUAGGCCAUGGAAACUAGGAGCACCACUUCGCUGCCAGUGAAGAAAUGAACAAAGAAAAUCUGGGCCAGGCAGGCAUCAAAAGAAAUAGUCUUGCGCCCAACCAGAAAGUCUGUAAUCAUUUUAAGGGUA [U37C U108C],0.01
